The sequences below were run on Escherichia coli TOP10 (assay: shrunken log2 fold change of peptide-encoding DNA abundance (4.5 h post-induction vs induction); higher = less antimicrobial activity (less host growth inhibition)). Conditions: time post-induction: 4.5 h; library: site-saturation at positions 5, 18, 19, 20.
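Further: peptides expressed intracellularly from a pBAD plasmid library in pooled LB shake-flask culture, induced with 0.3% L-arabinose, DNA abundance read by NGS, three biological replicates, DESeq2 with apeglm shrinkage.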

RRIRWRPPRLPRPRPRPPRAPRP and RRIRQRPPRLPRPRPRPGWGPRP are within 0.2 log units of each other in “shrunken log2 fold change” value: 0.782 for the first, 0.957 for the second.

RRIRWRPPRLPRPRPRPKMSPRP and RRIRRRPPRLPRPRPRPTFCPRP are within 0.2 log units of each other in “shrunken log2 fold change” value: 0.163 for the first, 0.0676 for the second.

First: RRIRCRPPRLPRPRPRPNMLPRP
Second: RRIRPRPPRLPRPRPRPKQQPRP
The “shrunken log2 fold change” value of the first is lower: -0.398 for the first, 0.214 for the second.

Going from RRIRCRPPRLPRPRPRPTCNPRP to RRIRNRPPRLPRPRPRPQMTPRP, the “shrunken log2 fold change” value falls from -0.265 to -0.661.

Going from RRIRTRPPRLPRPRPRPYTQPRP to RRIRVRPPRLPRPRPRPVMEPRP, the “shrunken log2 fold change” value rises from -0.434 to -0.186.

Compared with RRIRNRPPRLPRPRPRPNLMPRP, RRIRQRPPRLPRPRPRPKQTPRP is higher in “shrunken log2 fold change” value: -0.733 for the first, -0.0544 for the second.

RRIRSRPPRLPRPRPRPTYPPRP and RRIRHRPPRLPRPRPRPDGDPRP are within 0.2 log units of each other in “shrunken log2 fold change” value: -0.0945 for the first, 0.0106 for the second.

RRIRVRPPRLPRPRPRPEWHPRP and RRIRNRPPRLPRPRPRPSRIPRP are within 0.2 log units of each other in “shrunken log2 fold change” value: -0.158 for the first, -0.234 for the second.

Going from RRIRKRPPRLPRPRPRPFCLPRP to RRIRGRPPRLPRPRPRPAICPRP, the “shrunken log2 fold change” value rises from -0.0107 to 0.555.

Compared with RRIRPRPPRLPRPRPRPDPQPRP, RRIRRRPPRLPRPRPRPDYAPRP is higher in “shrunken log2 fold change” value: -0.0397 for the first, 0.559 for the second.

Going from RRIRGRPPRLPRPRPRPQLPPRP to RRIRQRPPRLPRPRPRPCIWPRP, the “shrunken log2 fold change” value falls from 0.183 to -0.018.

RRIRERPPRLPRPRPRPQWCPRP and RRIRYRPPRLPRPRPRPHEIPRP are within 0.2 log units of each other in “shrunken log2 fold change” value: -0.262 for the first, -0.194 for the second.

RRIRMRPPRLPRPRPRPLGCPRP and RRIRHRPPRLPRPRPRPACEPRP are within 0.2 log units of each other in “shrunken log2 fold change” value: 0.182 for the first, 0.0343 for the second.

Compared with RRIRTRPPRLPRPRPRPDYQPRP, RRIRIRPPRLPRPRPRPLPCPRP is lower in “shrunken log2 fold change” value: -0.0545 for the first, -0.661 for the second.

RRIRRRPPRLPRPRPRPVTIPRP and RRIRFRPPRLPRPRPRPMLEPRP are within 0.2 log units of each other in “shrunken log2 fold change” value: 0.297 for the first, 0.147 for the second.

First: RRIRARPPRLPRPRPRPGCPPRP
Second: RRIRERPPRLPRPRPRPELRPRP
The “shrunken log2 fold change” value of the first is higher: 0.343 for the first, 0.0526 for the second.

Going from RRIRLRPPRLPRPRPRPYPPPRP to RRIRIRPPRLPRPRPRPTLFPRP, the “shrunken log2 fold change” value rises from -0.866 to -0.131.

RRIRNRPPRLPRPRPRPDSCPRP and RRIRLRPPRLPRPRPRPAGIPRP are within 0.2 log units of each other in “shrunken log2 fold change” value: -0.00192 for the first, -0.043 for the second.

Going from RRIRHRPPRLPRPRPRPTFLPRP to RRIRVRPPRLPRPRPRPPLMPRP, the “shrunken log2 fold change” value rises from -0.0769 to 0.175.

Going from RRIRTRPPRLPRPRPRPFNKPRP to RRIRFRPPRLPRPRPRPIFKPRP, the “shrunken log2 fold change” value falls from 0.0555 to -0.153.

Going from RRIRKRPPRLPRPRPRPHRPPRP to RRIRARPPRLPRPRPRPTQDPRP, the “shrunken log2 fold change” value rises from 0.172 to 0.974.

Compared with RRIRWRPPRLPRPRPRPSMKPRP, RRIRTRPPRLPRPRPRPTHQPRP is higher in “shrunken log2 fold change” value: -0.199 for the first, 0.926 for the second.

RRIRRRPPRLPRPRPRPWIYPRP and RRIRIRPPRLPRPRPRPDRDPRP are within 0.2 log units of each other in “shrunken log2 fold change” value: -0.118 for the first, -0.0646 for the second.

RRIRGRPPRLPRPRPRPIEGPRP and RRIRERPPRLPRPRPRPIGRPRP are within 0.2 log units of each other in “shrunken log2 fold change” value: 0.0275 for the first, 0.0419 for the second.

Compared with RRIRRRPPRLPRPRPRPSSPPRP, RRIRTRPPRLPRPRPRPNDDPRP is lower in “shrunken log2 fold change” value: 0.00935 for the first, -0.519 for the second.

First: RRIRFRPPRLPRPRPRPNACPRP
Second: RRIRIRPPRLPRPRPRPLYYPRP
The “shrunken log2 fold change” value of the first is higher: -0.18 for the first, -0.856 for the second.

RRIRVRPPRLPRPRPRPIATPRP and RRIRNRPPRLPRPRPRPGTTPRP are within 0.2 log units of each other in “shrunken log2 fold change” value: 0.141 for the first, 0.0321 for the second.

Going from RRIRGRPPRLPRPRPRPLRAPRP to RRIRCRPPRLPRPRPRPWYMPRP, the “shrunken log2 fold change” value falls from 1.72 to -0.838.

Going from RRIRSRPPRLPRPRPRPDGPPRP to RRIRGRPPRLPRPRPRPLHNPRP, the “shrunken log2 fold change” value rises from 0.0211 to 0.249.

RRIRHRPPRLPRPRPRPIIGPRP and RRIRTRPPRLPRPRPRPLWEPRP are within 0.2 log units of each other in “shrunken log2 fold change” value: -0.00804 for the first, -0.0281 for the second.
